Source: ChEMBL document CHEMBL2073968, “Multidrug resistance protein 4 (MRP4/ABCC4) mediates efflux of bimane-glutathione” (Int J Biochem Cell Biol, 2004)

Substrate: [H][C@@]12CC=C3C[C@@H](OS(=O)(=O)O)CC[C@]3(C)[C@@]1([H])CC[C@]1(C)C(=O)CC[C@@]21[H]
Assay: TP_TRANSPORTER: uptake in membrane vesicles from MRP1-expressing Sf9 cells
Format: functional, cell membranes, Membrane vesicle

B1: Multidrug resistance-associated protein 1 (Homo sapiens) (protein)
chain: MALRGFCSADGSDPLWDWNVTWNTSNPDFTKCFQNTVLVWVPCFYLWACFPFYFLYLSRHDRGYIQMTPLNKTKTALGFLLWIVCWADLFYSFWERSRGIFLAPVFLVSPTLLGITMLLATFLIQLERRKGVQSSGIMLTFWLVALVCALAILRSKIMTALKEDAQVDLFRDITFYVYFSLLLIQLVLSCFSDRSPLFSETIHDPNPCPESSASFLSRITFWWITGLIVRGYRQPLEGSDLWSLNKEDTSEQVVPVLVKNWKKECAKTRKQPVKVVYSSKDPAQPKESSKVDANEEVEALIVKSPQKEWNPSLFKVLYKTFGPYFLMSFFFKAIHDLMMFSGPQILKLLIKFVNDTKAPDWQGYFYTVLLFVTACLQTLVLHQYFHICFVSGMRIKTAVIGAVYRKALVITNSARKSSTVGEIVNLMSVDAQRFMDLATYINMIWSAPLQVILALYLLWLNLGPSVLAGVAVMVLMVPVNAVMAMKTKTYQVAHMKSKDNRIKLMNEILNGIKVLKLYAWELAFKDKVLAIRQEELKVLKKSAYLSAVGTFTWVCTPFLVALCTFAVYVTIDENNILDAQTAFVSLALFNILRFPLNILPMVISSIVQASVSLKRLRIFLSHEELEPDSIERRPVKDGGGTNSITVRNATFTWARSDPPTLNGITFSIPEGALVAVVGQVGCGKSSLLSALLAEMDKVEGHVAIKGSVAYVPQQAWIQNDSLRENILFGCQLEEPYYRSVIQACALLPDLEILPSGDRTEIGEKGVNLSGGQKQRVSLARAVYSNADIYLFDDPLSAVDAHVGKHIFENVIGPKGMLKNKTRILVTHSMSYLPQVDVIIVMSGGKISEMGSYQELLARDGAFAEFLRTYASTEQEQDAEENGVTGVSGPGKEAKQMENGMLVTDSAGKQLQRQLSSSSSYSGDISRHHNSTAELQKAEAKKEETWKLMEADKAQTGQVKLSVYWDYMKAIGLFISFLSIFLFMCNHVSALASNYWLSLWTDDPIVNGTQEHTKVRLSVYGALGISQGIAVFGYSMAVSIGGILASRCLHVDLLHSILRSPMSFFERTPSGNLVNRFSKELDTVDSMIPEVIKMFMGSLFNVIGACIVILLATPIAAIIIPPLGLIYFFVQRFYVASSRQLKRLESVSRSPVYSHFNETLLGVSVIRAFEEQERFIHQSDLKVDENQKAYYPSIVANRWLAVRLECVGNCIVLFAALFAVISRHSLSAGLVGLSVSYSLQVTTYLNWLVRMSSEMETNIVAVERLKEYSETEKEAPWQIQETAPPSSWPQVGRVEFRNYCLRYREDLDFVLRHINVTINGGEKVGIVGRTGAGKSSLTLGLFRINESAEGEIIIDGINIAKIGLHDLRFKITIIPQDPVLFSGSLRMNLDPFSQYSDEEVWTSLELAHLKDFVSALPDKLDHECAEGGENLSVGQRQLVCLARALLRKTKILVLDEATAAVDLETDDLIQSTIRTQFEDCTVLTIAHRLNTIMDYTRVIVLDKGEIQEYGAPSDLLQQRGLFYSMAKDAGLV
Question: How did the Km turn out when B1 was run?
Answer: The Km was 5 µM.
